This note sets out measurements from PMC5113989.

Test in all cases: KinExA flow fluorimetry (depletion of 5-Helix by cells)
On the technique in general: A kinetic exclusion assay measures how much of one partner remains free in solution.

The target in test [1] is C34-conjugated CXCR4 (gp41 HR2 peptide C34 fused to the amino terminus of CXCR4) (HIV-1 (HxB2 numbering) | not stated) (UniProt P04578).
Test [2] concerns the target C34-conjugated CCR5 (gp41 HR2 peptide C34 fused to the amino terminus of CCR5) (HIV-1 (HxB2 numbering) | human (genomic DNA of the Jurkat T cell line)) (UniProt P04578).
The target of test [3] is C34-conjugated CXCR4 (gp41 HR2 peptide C34 fused to the amino terminus of CXCR4) (HIV-1 (HxB2 numbering) | not stated) (UniProt P04578). This is another data set of the same source.
The target in test [4] is C34-conjugated CCR5 (gp41 HR2 peptide C34 fused to the amino terminus of CCR5) (HIV-1 (HxB2 numbering) | human (genomic DNA of the Jurkat T cell line)) (UniProt P04578). The source holds these as a separate data set.

Like-named read-outs stand apart in the source and are kept apart here.

Usually Kd stands for the equilibrium constant for the complex coming apart. Higher therefore signals weaker binding. In the case of “rhodamine-conjugated 5-Helix (5-Helix variant containing a C-terminal Cys residue)”, the Kd in test [1] is 0.004 nM; in test [2], 0.013 nM; in test [3] it was < 0.015 nM; in test [4], < 0.015 nM.
